{"source": "patent US12303551B2", "about": "“Cellular immunotherapy compositions and uses thereof” (CERO THERPEUTICS HOLDINGS, INC., priority 2018, dated 2025)", "molecules": {"B1": {"name": "CER30: Chimeric engulfment receptor: Tim4 binding, Tim4 transmembrane, TRAF2 signaling; SEQ ID NO: 120 (protein)", "chain": "MSKGLLLLWLVTELWWLYLTPAASEDTIIGFLGQPVTLPCHYLSWSQSRNSMCWGKGSCPNSKCNAELLRTDGTRIISRKSTKYTLLGKVQFGEVSLTISNTNRGDSGVYCCRIEVPGWFNDVKKNVRLELRRATTTKKPTTTTRPTTTPYVTTTTPELLPTTVMTTSVLPTTTPPQTLATTAFSTAVTTCPSTTPGSFSQETTKGSAFTTESETLPASNHSQRSMMTISTDIAVLRPTGSNPGILPSTSQLTTQKTTLTTSESLQKTTKSHQINSRQTILIIACCVGFVLMVLLFLAFLMAAASVTPPGSLELLQPGFSKTLLGTKLEAKYLCSACRNVLRRPFQAQCGHRYCSFCLASILSSGPQNCAACVHEGIYEEGISILESSSAFPDNAARREVESLPAVCPSDGCTWKGTLKEYESCHEGRCPLMLTECPACKGLVRLGEKERHLEHECPERSLSCRHCRAPCCGADVKAHHEVCPKFPLTCDGCGKKKIPREKFQDHVKTCGKCRVPCRFHAIGCLETVEGEKQQEHEVQWLREHLAMLLSSVLEAKPLLGDQSHAGSELLQRCESLEKKTATFENIVCVLNREVERVAMTAEAC", "modifications": "CER30, amino acids 1-22 are signal peptide"}, "B2": {"name": "CER29: Chimeric engulfment receptor: Tim4 binding, Tim4 transmembrane, TRAF6 signaling; SEQ ID NO: 99 (protein)", "chain": "MSKGLLLLWLVTELWWLYLTPAASEDTIIGFLGQPVTLPCHYLSWSQSRNSMCWGKGSCPNSKCNAELLRTDGTRIISRKSTKYTLLGKVQFGEVSLTISNTNRGDSGVYCCRIEVPGWFNDVKKNVRLELRRATTTKKPTTTTRPTTTPYVTTTTPELLPTTVMTTSVLPTTTPPQTLATTAFSTAVTTCPSTTPGSFSQETTKGSAFTTESETLPASNHSQRSMMTISTDIAVLRPTGSNPGILPSTSQLTTQKTTLTTSESLQKTTKSHQINSRQTILIIACCVGFVLMVLLFLAFLMSLLNCENSCGSSQSESDCCVAMASSCSAVTKDDSVGGTASTGNLSSSFMEEIQGYDVEFDPPLESKYECPICLMALREAVQTPCGHRFCKACIIKSIRDAGHKCPVDNEILLENQLFPDNFAKREILSLMVKCPNEGCLHKMELRHLEDHQAHCEFALMDCPQCQRPFQKFHINIHILKDCPRRQVSCDNCAASMAFEDKEIHDQNCPLANVICEYCNTILIREQMPNHYDLDCPTAPIPCTFSTFGCHEKMQRNHLARHLQENTQSHMRMLA", "modifications": "CER29, amino acids 1-22 are signal peptide"}, "B3": {"name": "CER110: Chimeric engulfment receptor: Tim4 binding, Tim4 transmembrane, TRAF6 and DAP12 signaling; SEQ ID NO: 145 (protein)", "chain": "MSKGLLLLWLVTELWWLYLTPAASEDTIIGFLGQPVTLPCHYLSWSQSRNSMCWGKGSCPNSKCNAELLRTDGTRIISRKSTKYTLLGKVQFGEVSLTISNTNRGDSGVYCCRIEVPGWFNDVKKNVRLELRRATTTKKPTTTTRPTTTPYVTTTTPELLPTTVMTTSVLPTTTPPQTLATTAFSTAVTTCPSTTPGSFSQETTKGSAFTTESETLPASNHSQRSMMTISTDIAVLRPTGSNPGILPSTSQLTTQKTTLTTSESLQKTTKSHQINSRQTILIIACCVGFVLMVLLFLAFLMSLLNCENSCGSSQSESDCCVAMASSCSAVTKDDSVGGTASTGNLSSSFMEEIQGYDVEFDPPLESKYECPICLMALREAVQTPCGHRFCKACIIKSIRDAGHKCPVDNEILLENQLFPDNFAKREILSLMVKCPNEGCLHKMELRHLEDHQAHCEFALMDCPQCQRPFQKFHINIHILKDCPRRQVSCDNCAASMAFEDKEIHDQNCPLANVICEYCNTILIREQMPNHYDLDCPTAPIPCTFSTFGCHEKMQRNHLARHLQENTQSHMRMLAYFLGRLVPRGRGAAEAATRKQRITETESPYQELQGQRSDVYSDLNTQRPYYK", "modifications": "CER110, amino acids 1-22 are signal peptide"}}, "key": {"SCC152 target cells": {"tested_on": "SCC152 target cells", "experiment": "Phagocytosis of SCC152 by CD4+ T cell/CER, fluorescence microscopy with hybrid capture", "assay_type": "cell-based", "conditions": "TRAF-domain CERs, 4 hours, 1:1:0.5 (CD8:CD4:target cell); versus CD4+ control + CD8+/E7 TCR", "protocol": "(§1) FIG. 28 is a bar graph representing quantification of CD4+ T cell-CER mediated phagocytosis of SCC152 target cells. Results calculated as ((number of phagocytic target events)/(total number of effectors))*100 from 3×3 40× images, 4 hours after initiation of co-culture assay. CD8+ T cells transduced with HPV16 E7 TCR and CD4+ T cells transduced with selected CERs (CER5, CER17, CER19, CER21, CER23, CER26, CER27, CER103b, CER104, CER105, CER106, or CER116) were co-cultured with SCC152 squamous head and neck carcinoma target cells at a 1:1:0.5 ratio for 4 hours and imaged.\nas §1, with “29” for “28”, “(median area ratio” for “((number”, “of” for “of phagocytic”, “events in effector cells*% phagocytosis)” for “events)/(total number of effectors))*100”\n(§2) FIG. 55 is a bar graph representing quantification of CD4+ T cell-CER mediated phagocytosis of SCC152 target cells. Percent phagocytosis was calculated as ((number of phagocytic target events)/(total number of effector cells))*100. These numbers were calculated from 3×3 images captured by Keyence BZ-X710 fluorescence microscope at 40× resolution, 4 hours after initiation of co-culture assay. CD8+ T cells transduced with HPV16 E7 TCR and CD4+ T cells transduced with a selected CER (CER29, CER30, CER110, CER112, CER113, CER114, CER116, or CER117) were co-cultured with SCC152 target cells at a 1:1:0.5 ratio (CD8:CD4:target cell) for 4 hours and imaged.\nas §2, with “56” for “55”, “Adjusted phagocytic index” for “Percent phagocytosis”, “(median area ratio” for “((number”, “of” for “of phagocytic”, “events in” for “events)/(total number of”, “cells*% phagocytosis).” for “cells))*100.”\nPhagocytic activity of CD4+ T cell/CER+CD8+ T cell/HPV16 E7 TCR combinations co-cultured with SCC152 cells was visualized and quantified using KEYENCE BZ-X710 fluorescence microscope, […] and hybrid capture software."}, "SCC152 cells": {"tested_on": "SCC152 cells", "experiment": "Elimination of GFP-expressing SCC152 target cells over time (quantification and time lapse imaging)", "assay_type": "cell-based", "protocol": "Target SCC152 cells were co-cultured with CD8+ T cells transduced with HPV E7 TCR+CD4+ T cells transduced with a selected CER, or controls (CD8+ T cell transduced with HPV E7 TCR+CD4+ transduced control) at a 1:1:1 ratio. The number of target cells were quantified using imaging software. 0 hours, 24 hours, and 48 hours are shown from left to right.\n(§3) FIG. 21 is time lapse imaging from 96-well co-culture experiments comprising CD8+ T cells transduced with HPV16 E7 TCR+CD4+ T cells transduced with CER5, CER17 or CER19 incubated with SCC152 target cells at a 1:1:1 ratio. SCC152 HPV+ target cells were quantified using automated cell counting software.\nas §3, with “22” for “21”, “CER21, CER23” for “CER5, CER17”, “CER26” for “CER19”\nas §3, with “23” for “21”, “CER103b, CER104” for “CER5, CER17”, “CER105” for “CER19”\nas §3, with “24” for “21”, “CER106, CER116” for “CER5, CER17”, “CER27” for “CER19”\nFIG. 57 is a bar graph showing quantification of loss of SCC152 HPV16+ target cells over time during co-culture assays. SCC152 cells were transduced with green fluorescent protein (GFP) and co-cultured with CD8+ T cells transduced with HPV16 E7 TCR and CD4+ T cells transduced with a selected CER (CER29, CER30, CER110, CER112, CER113, CER114, CER116, or CER117) or a CD4+ T cell control at a 1:1:1 ratio (CD8:CD4:target cell). The number of target cells was quantified at various time points during co-culture (0 hrs, 12 hrs, 24 hrs, and 36 hrs) using fluorescence microscopy and imaging software.\n(§4) FIG. 58 are fluorescence micrograph images of the co-culture assay described in FIG. 57, showing clearance of the SCC152 cells (pink) as co-culture with CD8+ T cells transduced with HPV16 E7 TCR and CD4+ T cells transduced with a selected CER (columns from left to right: control, CER29, CER30, CER110, or CER112) progresses (rows from top to bottom: 0 hrs, 12 hrs, 24 hrs, and 36 hrs).\nas §4, with “59” for “58”, “CER113, CER114, CER116,” for “CER29, CER30, CER110,”, “CER117)” for “CER112)”\n(§5) Elimination of target SCC152 cells was also detected by quantifying green fluorescent protein expression by SCC152 cells over time (0 hr, 24 hr, 48 hr) during co-incubation with CD8+ T cells transduced with HPV16 E7 specific TCR+ CD4 T cells transduced with selected CER (see, FIG. 20).\nas §5, with “hr, 12 hr,” for “hr,”, “hr, 36” for “hr, 48”, “TCR+ CD4+” for “TCR+ CD4”, “CER (CER29, CER30, CER110, CER112, CER113, CER114, CER116, or CER117)” for “CER”, “FIG. 57).” for “FIG. 20).”"}}}
{"molecule": "B1", "values": [{"measurement": "engulfment of SCC152 target cells (percent phagocytosis, adjusted phagocytic index)", "setting": "SCC152 target cells", "value": "enhanced engulfment"}, {"measurement": "elimination of SCC152 cells, time lapse imaging", "setting": "SCC152 cells; 0 to 36 hrs, compared to the control", "value": "enhanced elimination of SCC152 cells"}, {"measurement": "elimination of SCC152 cells (GFP quantification)", "setting": "SCC152 cells; by 36 hrs, 1:1:1 ratio (CD8:CD4:target cell), compared to control", "value": "nearly complete elimination"}]}
{"molecule": "B2", "values": [{"measurement": "engulfment of SCC152 target cells (percent phagocytosis, adjusted phagocytic index)", "setting": "SCC152 target cells", "value": "enhanced engulfment"}]}
{"molecule": "B3", "values": [{"measurement": "engulfment of SCC152 target cells (percent phagocytosis, adjusted phagocytic index)", "setting": "SCC152 target cells", "value": "enhanced engulfment"}]}
